Non-standard residues stand in square brackets, D forms with d. No end group written: not given here. βAla = NCCC(=O)O

This assay addresses T1, N-terminally GST-tagged human β-catenin (human, UniProt P35222 1-781, limits assumed).
T1 construct: not shown: N-terminal GST tag
T1 sequence (looked up): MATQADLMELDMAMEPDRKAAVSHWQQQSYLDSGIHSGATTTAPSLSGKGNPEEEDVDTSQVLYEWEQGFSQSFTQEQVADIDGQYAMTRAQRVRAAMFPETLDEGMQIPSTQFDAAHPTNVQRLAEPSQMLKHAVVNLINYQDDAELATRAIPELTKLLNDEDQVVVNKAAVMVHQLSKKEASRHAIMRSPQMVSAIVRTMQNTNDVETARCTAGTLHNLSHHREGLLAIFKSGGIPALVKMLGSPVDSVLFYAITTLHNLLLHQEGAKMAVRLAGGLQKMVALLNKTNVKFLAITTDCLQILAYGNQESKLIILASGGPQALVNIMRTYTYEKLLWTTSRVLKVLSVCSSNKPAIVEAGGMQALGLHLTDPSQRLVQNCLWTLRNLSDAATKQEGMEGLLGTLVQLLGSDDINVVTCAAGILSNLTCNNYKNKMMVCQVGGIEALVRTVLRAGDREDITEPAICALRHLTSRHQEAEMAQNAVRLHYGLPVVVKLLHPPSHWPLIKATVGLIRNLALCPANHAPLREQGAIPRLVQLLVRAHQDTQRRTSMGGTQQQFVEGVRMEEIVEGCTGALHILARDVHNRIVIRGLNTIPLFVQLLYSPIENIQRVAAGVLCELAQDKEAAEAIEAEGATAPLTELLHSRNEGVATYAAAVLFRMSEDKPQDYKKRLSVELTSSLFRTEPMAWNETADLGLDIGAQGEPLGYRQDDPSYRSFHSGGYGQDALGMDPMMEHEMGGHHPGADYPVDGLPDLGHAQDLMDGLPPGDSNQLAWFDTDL
Description: fluorescence polarization; FITC-labeled peptide, GST-tagged human β-catenin. As for the experimental part: Peptide sequences derived from TCF4 and Axin were synthesized and fluorescently labeled (FIG. 4b) and the affinity of both binding domains to β-catenin was assessed. The sequence of TCF4 was modified in such a way that the loop (9 amino acids; not visible in the crystal structure) between the extended region and the α-helix was replaced by two β-alanines (βAla). Labeled peptides and GST-tagged human β-catenin were used in a fluorescence polarization assay enabling the determination of the stability of these peptide/β-catenin complexes (FIG. 4c). […] Therefore, the Axin derivative was considered to be the most promising candidate for the hydrocarbon stapling approach.
Background: In fluorescence polarisation assays a small probe gives low polarisation when free and higher when bound to something large.

B1: TCF4 derived peptide, fluorescently labeled (peptide, UniProt Q9NQB0 10-53, looked up)
peptide: DELISFKDEGEQE[βAla][βAla]ERDLADVKSSLVN
modifications: also: FITC label, place not given here
notes: A synthetic fragment, not the whole protein
For B1, binding was characterised by a dissociation constant (Kd) of 300 nM.

B2: Axin wild type sequence peptide ax-WT, fluorescently labeled (peptide)
peptide: ENPESILDEHVQRVM
modifications: also: FITC label, site not given here
notes: also called axin-WT; Axin derived peptide
In the case of B2, the dissociation constant Kd – broadly, the constant that tells how readily two partners part at equilibrium – is around 5000 nM.

The values are drawn from patent US20150284437A1 (Harvard, published 2015).
